In the nanobody polyreactivity screen of Harvey et al. (2022):

Test: yeast display, Sf9 membrane polyspecificity reagent, FACS + sequencing; frameworks hold sequencing errors
In short: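 Using colony PCR, genes from sorted yeast display clones were amplified, then sequenced on MiSeq at 2 × 250 and filtered by CDR length. The clones had been stained with 10% biotinylated, detergent-solubilized Sf9 membrane reagent for 1 hour at 4 °C and sorted by FACS into low and high (top ~1%) gates on anti-HA and streptavidin fluorescence. Polyreactivity labels come from the gate of origin.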

Row | Sequence | polyreactivity (PSR sort gate)
1 | QVQLVESGGGLVQAGGSLRLRCAASGFTFQNYVMGWYRQAPGKESELVAAINSGGRTYYADSVKGRFTISRDYANNTVYLQMNSLKPEDTAVYFCKDRRGHYWGQGTQVTVSS | high polyreactivity
2 | QVQLVESGGGLVQAGGSLRLRCAASGFTFYWYAMGWYRQAPGKEREIVAAIDQSGGSTYYADSVKGRFTISRDNAKNSVYLQMNSLKQEDTAVYYCAARYILWDGDSWTEFDYWGQGTQVTVSS | low polyreactivity
3 | QVQLVESGGGLVQAGGSLRLRCAASGIIFTDYAMGWYRQAPGKERELVAAISSGGGSTYYAHSVKGRFTISRDNAKNTVYFLMNSLKPDVTAVYYCAAEGYLISGAGDYLYDYYWGQGTQVTVSS | high polyreactivity
4 | QVQLVESGGGLVQAGGSLRLRCAASGIIFYGNAMGWYRPAPGQERELVAAISRRSGSTYYADSVKGRFTISRDTAKNTVYLQMNSLKPEDTAVYYGNKRAANAVTINDMDYWGQGTQVTVSS | high polyreactivity
5 | QVQLVESGGGLVQAGGSLRLRCAASGIIFYRNVMGWYRQAPGKERELVAAISGRGGSTYYADSVKGRFTISRDNAKNTVYLQMNILKPEETAVYYCATDTRTWRFTRGAWYTYGSDYWGQGTQVTVSS | high polyreactivity
6 | QVQLVESGGGLVQAGGSLRLRCAASGLIFIFNAMGWYRQAPGKERELVAAIDTSDDSTYYADSVKGRFTISRDNAKNTVYLQMNSMKPEDTAVYYCAAEELSNYEYWGQGTQVTVSS | low polyreactivity
7 | QVQLVESGGGLVQAGGSLRLRCAASGLTFRKYPMGWYRPAPGKERELVATISRNGGSTYSADSVKGRFTISSDNAKITVYLQMNSLKPEDTAVYYCAADYYTYDYAGYGYWGQGTQVTVSS | high polyreactivity
8 | QVQLVESGGGLVQAGGSLRLRCAASGLTYSNAMGWYRQAPGKERELVAAISWRGGRTYYADSVKGRFTISRDNAKNTVYLQMNSLKPEDTAVYYCAKYAHGHKWYGYWGQGTQVTVSS | low polyreactivity
9 | QVQLVESGGGLVQAGGSLRLRCAASGRIFGYNDMGWYRQAPGKERELVAAINWTGGSTYYADSVKARFTISRDNSKNTVYLQMNSLKPEDTAVYYCNADARTKWVQTHTDFISDYDYWGQGTQVTVSS | low polyreactivity
10 | QVQLVESGGGLVQAGGSLRLRCAASGRIFNNYAMGWYRPAPGKERELVAAISGSGGSTYYADSVKGRFTISRDNAKNNVYLQMNSLKPEDTAVYYCSTSGPHYFSRNFDYWGQGTQVTVSS | low polyreactivity
11 | QVQLVESGGGLVQAGGSLRLRCAASGRIFVENAMGWYRQAPGKERELVATISSGDSTNYADSVKGRFTISRDNAKNTVYLQMNSLKPEDTAVYYCDAADGIIESDYWGQGTQVTVSS | low polyreactivity
12 | QVQLVESGGGLVQAGGSLRLRCAASGRILWWYAMGWYRQAPGKERELVATITYSGGSTYADSVKGRFTISRDNAKNTVYLQMNSLKPEDTAVYYCAARLPLYYGKSDYWGQGTQVTVSS | high polyreactivity
13 | QVQLVESGGGLVQAGGSLRLRCAASGRTFKPYVMGWNRQAPGKERELVAAISSRGGSTYYADSVKGRFTISRDNAKNTFYLQMNSLKPEDTAVYYCNAAYWFSNKYGYWGQGTQVTVAS | high polyreactivity
14 | QVQLVESGGGLVQAGGSLRLRCAASGRTFRYYAMGWYRQAPGKERELVAVINYRGGSTYYADSVKGRFTISRDNEKNTVYLQMNSLKPEDTAVYYCAAQYIGWHLYWYDYWGQGTQVTVSS | low polyreactivity
15 | QVQLVESGGGLVQAGGSLRLRCAASGRTFTYNAMVWYRQAPGKERELVPANNFSGVSTYYADSVKGRFTISRDNAKNTVYLQMNILKPEVTAVYYCAARGSARKSFPYPLEYWGQGTQVTVSS | high polyreactivity
16 | QVQLVESGGGLVQAGGSLRLRCAASGSIFTDYAMGGYRQAPGKERELVAVIDIDGSTYYADSVKGRFTISRDNAKNTVYLQMNSLKPEDTAVYDCAAGYTYYSLYGYWGQGTQVTGSS | low polyreactivity
17 | QVQLVESGGGLVQAGGSLRLRCAASGSIFTWYAMGWYRQAPAKERELVAAITRGGSTSADSVKGRFTISRDNAKNTVYLQMNSLKPEYTAVYYCNAVYGVYDFNYWGQGTQVTVSS | low polyreactivity
18 | QVQLVESGGGLVQAGGSLRLRCAASGSIFVYNARGWYRPAPGKERELVPAISKSGGRTYYADSVKGRFTISRDNAKNTVYCQMHSLKPEDTAVYYCNALAGQRQGWEYDYWGQGTQVTVSS | high polyreactivity
19 | QVQLVESGGGLVQAGGSLRLRCAASGSIFYLYAMGWFRRAPGKERELVAASSRSGASTYYADSVKGRFTISRDNAKNTVYLQMNSLKPEDTAVYYGAADYNSQLARIYDYWGQGTQVTVSS | low polyreactivity
20 | QVQLVESGGGLVQAGGSLRLRCAASGSILYSYTMGWYRQAPGKERELVAALIRGGRTNYADSVKGRFTISRDNAKNTVYLQMNSLKPEDTAVYYCNTGSYAWSWRRAMDYWGQGTQVTVSS | high polyreactivity
21 | QVQLVESGGGLVQAGGSLRLRCAASGSIMGRYAMGWYRQAPGKERELVAAITSSGTRTYYPDSVKGRFTISRDNANNTVYLQMNSLKPEDTAVYYCAAYLAITRSYYIVPYDYWGQGTQVTVSS | high polyreactivity
22 | QVQLVESGGGLVQAGGSLRLRCAASGSNFYQNAMGGYRQAPGKETALLATIDVNTVSTSYADSVKGRFTISRDNAKNTVYLQMHSLKPEDTAVYYCAAGPDVGVLGDRDPWKNVKYDYWGQGTQVTASS | low polyreactivity

Row | Sequence | polyreactivity (PSR sort gate)
23 | QVQLVESGGGLVQAGGSLRLRCAASGSTCFLYAMGWYRQAPGKEMELVASISDGSSTNYADSVKGRFTISRDNAKNTVYLQMNSLKPEDTAVYYCDAARWYAHRVDYWGQGTQVTVSS | low polyreactivity
24 | QVQLVESGGGLVQAGGSLRLRCAASGSTFAYYAMGWYRQAPGKDRELVARIRSSGVSTYYADSVKGRFTISRDNPNNTVSLQMNTLKPEDTAGYYCHTAYAGVRYDSWGQGTQVTVSS | low polyreactivity
25 | QVQLVESGGGLVQAGGSLRLRCAASGSTFGPYVMGWYRQAPGKVRELVAVISGGSTDYADSVKGRFTISRDNAKNNVYLQINSLKPEDTAVYYCNAEYYFYLSPTVYLYDYWGQGTQVTVSS | high polyreactivity
26 | QVQLVESGGGLVQAGGSLRLRCAASGSTFSRYAMGWYRQAAGKERELVAAISWSGGSTYYADSVKGRFTISRDNAKNTVYLQMNSLKPEYTAVYYCAAYTYSFRANHDFWGQGTQVTVSS | high polyreactivity
27 | QVQLVESGGGLVQAGGSLRLRCAASGSTFWSYAMGWYRQAPGKERELVATITRAGTTNYADSVKGPFTISRDNAKNTVYLQMNSLKPEDTAVYYCAKRKFRWPYQGSYSYIPFGYWGQGTQVTVSS | high polyreactivity
28 | QVQLVESGGGLVQAGGSLRLRCAASGSTFYWNAMGWYRQAPGKERELVATITYSGGSTYYADSVKGRFTISRDNAKNTVYLQMNSLKPEDTAVYYCATGGLTWHYTYRGYYWGQGTQVTVSS | low polyreactivity
29 | QVQLVESGGGLVQAGGSLRLRCAASGTTTSNNSMGWYRQAPGKERELVADMSTNGDSTSYADSVKGRYTISRDNAKNTVYLQMNSLKPVDTAVYYCAASTYVTYWEYDYWGQGTQVTVSS | low polyreactivity
30 | QVQLVESGGGLVQAGGSLRLRCAASGWYRQAAGKERELVAAITYSGGSTYYADSVKGRFTISRDNAKKTVYLQMNSLKPEDTAVYYCAAQPRVDYEFPYRYGYWGLGTQVTVSS | low polyreactivity
31 | QVQLVESGGGLVQAGGSLRLRCAPSGFIFNTMGWYRQAPGKERDLVATISWSDGSTYYADSVKGRFTISRDNAKNTVYLHMNSLKTEDTADYYCAATTDALVGRPRYDYWGQGTQVTVSS | low polyreactivity
32 | QVQLVESGGGLVQAGGSLRLRGAASGSIFKGNAMGWYRQAPGKERELVAAITRSVARTYYADSVKVRFTISRDNAKNTVYLQMNSLKPEDTAVYDCAADWYQWGGRYYAPRYYYWGQGTQVTVSS | high polyreactivity
33 | QVQLVESGGGLVQAGGSLRLRSAASGSIYNQNAMGWYRQAHGNRELVAAITNGVSTDYADSVKGRFTISRDNAKNTVYLKLNSLKPEDTAVYYCNAGNYQYPSFEYDYWGLGTQVTVSS | low polyreactivity
34 | QVQLVESGGGLVQAGGSLRLRWAASGFIFGYYPMGWYRPAPGKERELVAAINSSGGSTYYADSVKGRFTISRDNAKNTVYLQMNSLKPADTAVYYCAARAYQRGIYWGQGTQVTLSS | high polyreactivity
35 | QVQLVESGGGLVQAGGSLRLSCAAAGFTFYIYAMGWYRKAPGKERELVAAITTTTGSTYYADSVKGRFTISRDNAKNTVYLQMNSLKPEDTAVYYCAAEGHYYYFGYYYWGQGTQVTVSS | low polyreactivity
36 | QVQLVESGGGLVQAGGSLRLSCAAAGSIFSGYAMGWSRQAPGKERELVAAISGSGGSTFYADSVKGRFTISRDNAKKTVYLQMNSLKPEDTAVYYCAARRIAPYARYDYWGQGTQVTVSS | low polyreactivity
37 | QVQLVESGGGLVQAGGSLRLSCAAAGSTFHANAMGWYRPAPGKERELVAAISRSGGSTNYADSVKGRFTISRDIAKNTVYLQMNSLKPEDTAVYYCAVDYRYYQVYYWGQGTQVTVSS | high polyreactivity
38 | QVQLVESGGGLVQAGGSLRLSCAACGRISTAYAMGGYRQAPGTERELVAAISSGTSTTYADSVKGRFTISRDNAKNTVYLQMNSLKPEDTAVYYCAAPGRYGEYDYWGQGTQVTVSS | low polyreactivity
39 | QVQLVESGGGLVQAGGSLRLSCAACGRTFRFYAMGWYRKAPGKERELVAAISKSGGSTYYADSVKGRFTISRDNEKNTVYLQMNSLKPEDTAVYYCAAQTYLYDYKYWGQGTQVTVSS | high polyreactivity
40 | QVQLVESGGGLVQAGGSLRLSCAACGSIFEAYAMGWYRKAPGKERELVAVINYSGGSTYYADSVKGRFTISRDNAKNTVYLQMNSLKPEDTAVYYCAADTVRPWYAYKAHDYWGLGTQVTVSS | low polyreactivity
41 | QVQLVESGGGLVQAGGSLRLSCAACGSIFPAYAMGWYRQAPGKERELVASITGSGGSTYYADSVKGRFTISRDNAKNTVYLQMNSLKPEDTAVYYCNARYYVYSATVDRYYHFYYWGQGTQVTVSS | high polyreactivity
42 | QVQLVESGGGLVQAGGSLRLSCAACGSIFPGYAMGWYREAPGKERELVAAITWNGGRTYSADSVKGRFTISRDNAKNTVYLQMNSLKPEDTAVYYCAVAGYAGLSVKYGYWGQGTQVTVSS | high polyreactivity
43 | QVQLVESGGGLVQAGGSLRLSCAACGSIFPRNAMGWYIQAPGKDRALVASLNSGGSTNYADSVKGRFTISRDNAKYTVYLHMNSLKPEDSAGYYCAAVRPWWRNKPQWPRYDYWGQGTQVTVSS | low polyreactivity
